Measured values from paper PMC10868436, “Discovery of broadly‐neutralizing antibodies against brown recluse spider and Gadim scorpion sphingomyelinases using consensus toxins as antigens” (Protein Science : A Publication of the Protein Society, 2024).

B1: TPL0674_03_A04 (scFv, V domains shown)
VH: QVQLVQSGSELKKPGASVKVSCKASGYTFTSYAMNWVRQAPGQGLEWMGWINTNTGNPTYAQGFTGRFVFSLDTSVSTAYLQISSLKAEDTAVYYCARDQGGDRHFGYWGQGTTVTVSS
VL: QSELTQPPSASGTPGQRVTISCSGSSSNIGSHRVNWYQQLPGTAPKLLIYSNYHRPAGVPDRFSASKSGTSASLAISGLQSEDEADYYCAAWDDSLNGYVFGTGTQLTVL
notes: also called scFv TPL0674_03_A04
B2: TPL0674_03_F05 (scFv, V domains shown)
VH: EVQLVQSGAEVKKPGASVRVSCKASGYSITNYGISWVRQAPGQGLEWMGWINTYNGNTNYAQKFQGRVTMTRDTSISTAYMELSRLRSDDTAVYYCARDHPYRGMDVWGQGTLVTVSS
VL: SYELTQDPAVSVALGQTVRITCQGDSLRSYYASWYQQKPGQAPVLVIYGKNNRPSGIPDRFSGSSSGNTASLTITGAQAEDEADYYCNSRDSSGNHPHVVFGGGTKLTVL
notes: also called scFv TPL0674_03_F05

Columns and labels:
[1] = molecular target: T1, recombinant SMase from L. rufescens (Loxosceles rufescens, UniProt C0JB02); assay: BLI; ForteBio Octet RED96, […]; 1:1 binding model, […]; triplicate; details: both partners purified
T1 construct: also called rLr; recombinant sphingomyelinase from Loxosceles rufescens; source: E. coli BL21(DE3), purified (HisPur Ni-NTA)

[2] = molecular target: T2, recombinant SMase from H. lepturus (Hemiscorpius lepturus, UniProt A0A1L4BJ98); assay: as above; details: both partners purified
T2 construct: also called rHl; recombinant sphingomyelinase from Hemiscorpius lepturus; source: E. coli BL21(DE3), purified (HisPur Ni-NTA)
T2 sequence (A0A1L4BJ98 whole entry, looked up): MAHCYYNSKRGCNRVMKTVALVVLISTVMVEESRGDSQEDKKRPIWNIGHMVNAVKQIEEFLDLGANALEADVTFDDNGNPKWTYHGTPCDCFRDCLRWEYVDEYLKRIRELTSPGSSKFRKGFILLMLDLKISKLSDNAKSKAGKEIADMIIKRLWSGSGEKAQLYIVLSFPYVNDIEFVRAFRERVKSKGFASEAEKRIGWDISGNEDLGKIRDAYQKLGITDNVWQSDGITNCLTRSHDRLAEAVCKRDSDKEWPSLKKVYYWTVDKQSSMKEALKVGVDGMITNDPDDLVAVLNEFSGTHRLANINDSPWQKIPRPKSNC

T1 sequence (C0JB02 whole entry, looked up): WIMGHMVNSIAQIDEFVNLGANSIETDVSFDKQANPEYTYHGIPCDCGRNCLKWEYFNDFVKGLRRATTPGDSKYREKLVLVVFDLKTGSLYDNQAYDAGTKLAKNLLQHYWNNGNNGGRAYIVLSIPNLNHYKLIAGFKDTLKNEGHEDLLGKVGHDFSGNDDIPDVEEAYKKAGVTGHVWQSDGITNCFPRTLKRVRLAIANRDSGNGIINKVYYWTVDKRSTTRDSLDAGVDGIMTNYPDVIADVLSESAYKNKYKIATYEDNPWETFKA

Binder | Kd [1] [nM] | Kd [2] [nM]
B1 | 66.9 | 45.3
B2 | 80.4 | 51.6
